Laboratory results published in patent US20130129722A1.

Assays:
[1] = target: Monkey Ang-2FD-hFc (monkey (Macca fascicularis)); assay: ELISA; 16.67 nM antibody premixed with Ang-2FD-hFc, binding to coated hTie-2-mFc
[2] = target: Mouse Ang-2FD-hFc (mouse (Mus musculus)); assay: as above
[3] = target: Human Ang-2FD-hFc (human); assay: as above
[4] = target: Dimeric Human Ang-2FD conjugated to human IgG1 (human); assay: SPR, human IgG1 antibody captured
[5] = target: Dimeric Mouse Ang-2FD conjugated to human IgG1 (mouse (Mus musculus)); assay: SPR, human IgG1 antibody captured
Chain of Dimeric Mouse Ang-2FD conjugated to human IgG1 (mouse (Mus musculus)) (chain, as listed by the source limits assumed): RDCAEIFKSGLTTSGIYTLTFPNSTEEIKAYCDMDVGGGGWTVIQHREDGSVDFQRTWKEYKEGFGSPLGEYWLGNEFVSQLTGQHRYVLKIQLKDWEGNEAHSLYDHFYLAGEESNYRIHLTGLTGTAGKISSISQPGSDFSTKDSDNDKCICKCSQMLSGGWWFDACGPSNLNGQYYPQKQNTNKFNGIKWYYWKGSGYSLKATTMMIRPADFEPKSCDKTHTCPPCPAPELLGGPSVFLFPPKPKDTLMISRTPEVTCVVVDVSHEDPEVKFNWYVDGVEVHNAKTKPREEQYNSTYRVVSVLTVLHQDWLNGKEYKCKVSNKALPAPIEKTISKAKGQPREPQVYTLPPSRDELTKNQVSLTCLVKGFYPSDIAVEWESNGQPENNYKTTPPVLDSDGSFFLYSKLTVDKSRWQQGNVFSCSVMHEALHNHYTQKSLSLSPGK

[6] = target: Dimeric Monkey Ang-2FD conjugated to human IgG1 (monkey (Macca fascicularis)); assay: SPR, human IgG1 antibody captured
Chain of Dimeric Monkey Ang-2FD conjugated to human IgG1 (monkey (Macca fascicularis)) (chain, as listed by the source limits assumed): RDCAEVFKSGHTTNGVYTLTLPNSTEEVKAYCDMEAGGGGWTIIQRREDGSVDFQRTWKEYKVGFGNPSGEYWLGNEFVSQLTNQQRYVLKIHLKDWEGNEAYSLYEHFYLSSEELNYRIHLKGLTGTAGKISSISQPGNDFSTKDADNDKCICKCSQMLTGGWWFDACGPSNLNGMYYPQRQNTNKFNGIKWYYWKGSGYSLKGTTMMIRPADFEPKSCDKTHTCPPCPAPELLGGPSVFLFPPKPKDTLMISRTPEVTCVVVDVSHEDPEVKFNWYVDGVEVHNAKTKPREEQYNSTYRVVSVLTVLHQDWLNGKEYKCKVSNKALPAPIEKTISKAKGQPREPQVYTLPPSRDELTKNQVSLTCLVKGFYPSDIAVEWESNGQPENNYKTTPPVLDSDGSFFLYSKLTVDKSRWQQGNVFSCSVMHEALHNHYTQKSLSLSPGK

Chain of Dimeric Human Ang-2FD conjugated to human IgG1 (human) (chain, as listed by the source limits assumed): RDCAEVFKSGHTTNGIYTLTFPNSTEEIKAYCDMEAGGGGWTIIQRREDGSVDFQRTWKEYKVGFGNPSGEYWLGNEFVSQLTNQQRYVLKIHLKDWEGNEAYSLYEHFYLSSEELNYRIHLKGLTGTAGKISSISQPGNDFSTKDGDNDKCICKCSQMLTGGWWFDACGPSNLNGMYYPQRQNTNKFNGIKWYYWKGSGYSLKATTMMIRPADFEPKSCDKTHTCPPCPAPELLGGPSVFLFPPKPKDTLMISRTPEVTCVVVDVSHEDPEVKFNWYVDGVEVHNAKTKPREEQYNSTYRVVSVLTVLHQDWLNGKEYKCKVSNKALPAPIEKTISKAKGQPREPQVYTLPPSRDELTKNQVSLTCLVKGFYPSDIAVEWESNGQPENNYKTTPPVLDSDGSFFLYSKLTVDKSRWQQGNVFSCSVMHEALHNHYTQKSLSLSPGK

Percent Blocking of Ang-2FD Binding to Tie-2 [1]: 96.6%
Percent Blocking of Ang-2FD Binding to Tie-2 [2]: 97.1%
Percent Blocking of Ang-2FD Binding to Tie-2 [3]: 96.6%
Kd [4]: 115 pM
T1/2 [4]: 1.78 h
Kd [5]: 185 pM
T1/2 [5]: 1.4 h
Kd [6]: 239 pM
T1/2 [6]: 2.88 h
B1: H1H724N (antibody, V domains shown)
VH: QVQLVESGGGVVQPGRSLRLSCAASGFTLSNYGMHWVRQAPGKGLEWVAVIWHDGSNTYYADSVKGRFTISRDNSKNTLYLQMNSLRAEDTAVYYCTREGLDFWSGYYPNWFDPWGQGTLVTVSS
VL: DIQMTQSPSSLSASVGDRVTITCRASQGIRNDLGWYQQKPGKAPKRLIYAASNLQGGVPSRFSGSGSGTEFTLTISSLQPEDFAAYYCLQHNIYPLTFGGGTKVEIK
